Among the data in PMC8888459 are percent of the control left pulled down with Yfh1^GST values, retold here.

The target of the experiment is NIA–Isu1 complex with C. thermophilum Isu1 (S. cerevisiae | E. coli (endogenous in the expression host) | C. thermophilum) (UniProt P25374). As to the kind of experiment: pull-down; competition: Yfh1^GST (2.5 μM) with NIA (5 μM) and Isu1Ct (7.5 μM), then Yah1 WT (increasing concentrations, 50 μM) or Yah1(DD/KK) (50 μM) added; glutathione resin; densitometry, amount without Yah1 set as 100%; buffer PD.
Sequence of NIA–Isu1 complex with C. thermophilum Isu1 (S. cerevisiae | E. coli (endogenous in the expression host) | C. thermophilum) (P25374 whole entry, looked up, one chain of several): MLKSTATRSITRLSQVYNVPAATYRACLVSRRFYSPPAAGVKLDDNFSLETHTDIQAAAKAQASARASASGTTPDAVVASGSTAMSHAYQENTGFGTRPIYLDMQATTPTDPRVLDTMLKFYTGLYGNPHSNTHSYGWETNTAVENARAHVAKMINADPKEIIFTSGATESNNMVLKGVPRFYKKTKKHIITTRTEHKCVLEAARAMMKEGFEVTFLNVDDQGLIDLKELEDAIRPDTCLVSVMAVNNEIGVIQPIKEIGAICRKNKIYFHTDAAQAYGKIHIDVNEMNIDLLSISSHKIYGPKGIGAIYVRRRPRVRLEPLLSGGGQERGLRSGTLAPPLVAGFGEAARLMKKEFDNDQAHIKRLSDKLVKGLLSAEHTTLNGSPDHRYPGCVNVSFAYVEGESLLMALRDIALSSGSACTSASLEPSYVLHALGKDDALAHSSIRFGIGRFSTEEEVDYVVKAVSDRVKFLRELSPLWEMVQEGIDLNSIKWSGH

B1: Yah1 (untagged, holo) (natural protein)
chain: IAAHLLRTSPSLLTRTTTTTRFLPFSTSSFLNHGHLKKPKPGEELKITFILKDGSQKTYEVCEGETILDIAQGHNLDMEGACGGSCACSTCHVIVDPDYYDALPEPEDDENDMLDLAYGLTETSRLGCQIKMSKDIDGIRVALPQMTRNVNNNDFS
In the case of B1, the percent of the control left pulled down with Yfh1^GST at 75 μM Yah1 was found to be 35%.
